One may read the stoichiometry N as the number of molecules, sites or subunits per partner or assembly.

Test [1] concerns the target Tr3DCatch1 (chimeric SpyAvidin tetramer of three core traptavidin subunits and one Dead streptavidin-SpyCatcher subunit) (UniProt P22629). Description: gel shift on SDS-PAGE of unboiled samples, Coomassie staining; SpyAvidin tetramer incubated with the ligand for 1 h at room temperature in PBS; the SpyTag/SpyCatcher link is a covalent isopeptide bond.
The target in test [2] is Tr (core traptavidin), homotetramer Tr4. Description: mixed refolding, ion-exchange chromatography and SDS-PAGE with or without boiling; subunits refolded from dissolved inclusion bodies (alone or mixed) by dilution into PBS; tetramers separated on Q-HP with a NaCl gradient in 20 mM Tris-HCl pH 8.0; tetramers stay assembled on SDS-PAGE unless boiled.
Test [3] deals with Tre (core traptavidin with a C-terminal hexaglutamate tag), homotetramer Tre4. Described as above.

Consider “KTag-AffiHER2-SpyTag (SpyTag-linked affibody against HER2)”, for which the stoichiometry N in test [1] is 1.

“Tr (core traptavidin), homotetramer Tr4 (complex)” showed a stoichiometry N in test [2] of 4.

In test [3], “Tre (core traptavidin with a C-terminal hexaglutamate tag), homotetramer Tre4 (complex)” displayed a stoichiometry N of 4.

(Values after paper PMC4183622.)
